Data reported in the RNAGym collection of RNA variant scans (doi:10.1021/acssynbio.7b00057).

B1: Pistol ribozyme (parent)
chain: GGGUCGUUGUUCCAUAAUCGCGUGGAUAUGGCACGCAAGUUUCUACCGGGCACCGUAAAUGUCCGACUGGAGCCGUUCGGGCGGCUAUAAACAGACCUCAGGCCCGAAGCGUGGCGGCACCUGCCGCCGGUGGUAAAAAAGAUCGGAAGAGCACACGUCU

Variants of: B1
Test: aptazyme ON/OFF ratio, guanine; higher = stronger switching; co-transcriptional cleavage with and without guanine

In order of falling “aptazyme ON/OFF ratio” value:
1. U7C U8G C12U  2.44
2. U7C U8G C12A  1.63
3. U7C U8G G9A U10G C12U C13A  1.46
4. U7C U8G G9A U10A C12G C13G  1.46
5. U7C U8G G9A U10A U11C C12G C13U  1.45
6. U7C U8G G9A U10G U11G C12G C13A  1.42
7. U7C U8G G9A U10G U11G C12U C13A  1.42
8. U7C U8G G9A U10A U11G C12U  1.38
9. U7C U8G G9A C12U C13G  1.35
10. U7C U8G G9A U10A U11C C12G C13G  1.34
11. U7C U8G G9A C12A  1.34
12. U7C U8G G9A U10A U11G  1.33
13. U7C U8G G9A U10G U11A C12U C13U  1.32
14. U7C U8G G9A U10A U11C C12G C13A  1.32
15. U7C U8G G9A U10A U11A  1.31
16. U7C U8G G9A U10A C12G C13U  1.31
17. U7C U8G G9A U10G U11A C12A C13G  1.3
18. U7C U8G C12G  1.29
19. U7C U8G G9A C12G  1.29
20. U7C U8G G9A U10C U11G C12G C13G  1.27
21. U7C U8G G9A U11G C12G C13G  1.27
22. U7C U8G G9A U10A C12A  1.26
23. U7C U8G G9C U10A U11A C12A C13U  1.26
24. U7C U8G G9A U10G C12U C13U  1.26
25. U7C U8G G9A U10A U11G C12G  1.25
26. U7C U8G G9A U10G U11G C12U C13G  1.25
27. U7C U8G G9A U10G U11G C12G C13U  1.24
28. U7C U8G G9A U10C U11G C12G C13A  1.23
29. U7C U8G G9A U10G U11A C12A C13U  1.22
30. U7C U8G G9A U10G U11G C12U C13U  1.22
31. U7C U8G G9A C12U C13U  1.22
32. U7C U8G G9A C12G C13U  1.21
33. U7C U8G G9C U10A C12A  1.2
34. U7C U8G G9A U11G C12A C13U  1.19
35. U7C U8G G9A U10A C12U  1.19
36. U7C U8G G9A U10G C12U C13G  1.19
37. U7C U8G G9A C12U  1.19
38. U7C U8G G9A U10A C12G  1.18
39. U7C U8G G9A U10G U11A C12A C13A  1.18
40. U7C U8G G9A U11G C12G C13U  1.18
41. U7C U8G G9A U11G C12A C13G  1.17
42. U7C U8G G9A U11G C12A C13A  1.17
43. U7C U8G G9A U11C C12G C13G  1.17
44. U7C U8G G9C U10A C12U  1.17
45. U7C U8G G9A U11G C12G C13A  1.16
46. U7C U8G G9A C12U C13A  1.16
47. U7C U8G G9C C12U C13A  1.16
48. U7C U8G G9C U10A U11A C12A C13G  1.15
49. U7C U8G G9A C12G C13A  1.15
50. U7C U8G G9C U10A C12G  1.14
51. U7C U8G G9A C13A  1.14
52. U7C U8G G9C U10A U11A C12A C13A  1.13
53. U7C U8G G9A U10C U11A C13A  1.12
54. U7C U8G G9A U11A C12G C13A  1.12
55. U7C U8G G9A C12G C13G  1.12
56. U7C U8G G9C U10A U11C C12U C13G  1.12
57. U7C U8G G9A U11A C12G C13G  1.11
58. U7C U8G G9A U11C C12G  1.11
59. U7C U8G G9A U11C C12U  1.11
60. U7C U8G G9A U10A C12G C13A  1.11
61. U7C U8G G9A C13U  1.11
62. U7C U8G G9C U10A U11C C12U C13A  1.11
63. U7C U8G G9A U11C C12G C13U  1.1
64. U7C U8G G9A U10C C12U C13U  1.1
65. U7C U8G G9A U11C C12A  1.1
66. U7C U8G G9A U10C U11A C13U  1.09
67. U7C U8G G9A U10C U11G C12G C13U  1.09
68. U7C U8G G9C U10A U11C C12U C13U  1.09
69. U7C U8G G9A U11A C12G C13U  1.08
70. U7C U8G G9A U10C C12U C13A  1.08
71. U7C U8G G9A U10C U11A C13G  1.07
72. U7C U8G G9A U10C C12U C13G  1.07
73. U7C U8G G9A U10A U11G C12A  1.06
74. U7C U8G G9A U10C U11C C12A C13U  1.06
75. U7C U8G G9A U11C C12G C13A  1.05
76. U7C U8G G9A C13G  1.05
77. U7C U8G G9A U10C U11C C12A C13G  1.04
78. U7C U8G G9A U10A U11C  1.04
79. U7C U8G G9A U10G U11G C12G C13G  1.03
80. U7C U8G G9A U10C U11C C12A C13A  1.03
81. U7C U8G G9A U10C U11C C12U C13A  1.02
82. U7C U8G G9A U10C U11C C12U C13U  1.02
83. U7C U8G G9A U10C U11C C12U C13G  1.01
